This note sets out measurements from article PMC5737894.

One data set has as its target T1, DRB4 H32A/K133A (Arabidopsis thaliana, UniProt Q8H1D4 1-355, H32A;K133A).
T1 sequence: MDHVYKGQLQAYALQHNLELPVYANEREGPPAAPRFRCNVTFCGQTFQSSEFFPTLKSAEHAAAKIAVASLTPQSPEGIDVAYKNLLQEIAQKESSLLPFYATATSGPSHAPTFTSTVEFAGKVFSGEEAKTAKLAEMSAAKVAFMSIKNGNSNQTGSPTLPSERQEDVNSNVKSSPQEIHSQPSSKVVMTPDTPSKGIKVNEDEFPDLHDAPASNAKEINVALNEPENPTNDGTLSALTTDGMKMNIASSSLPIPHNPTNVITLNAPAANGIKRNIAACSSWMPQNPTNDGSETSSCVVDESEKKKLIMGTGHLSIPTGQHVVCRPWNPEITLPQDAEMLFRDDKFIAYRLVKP
The data set is described as follows: EMSA. (In general: Mobility shift assays separate free from complexed probe on a gel.)

A further data set deals with T2, DRB4C (Arabidopsis thaliana, UniProt Q8H1D4 154-355).
T2 sequence: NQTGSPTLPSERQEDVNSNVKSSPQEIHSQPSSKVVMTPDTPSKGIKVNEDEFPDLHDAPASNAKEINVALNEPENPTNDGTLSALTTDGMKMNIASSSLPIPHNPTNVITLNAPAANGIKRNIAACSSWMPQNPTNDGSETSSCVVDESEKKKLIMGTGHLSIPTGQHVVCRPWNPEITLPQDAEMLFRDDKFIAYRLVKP
Briefly: EMSA.

Another data set deals with T3, DRB4D1D2 H32A/K133A (Arabidopsis thaliana, UniProt Q8H1D4 1-153, H32A;K133A).
T3 sequence: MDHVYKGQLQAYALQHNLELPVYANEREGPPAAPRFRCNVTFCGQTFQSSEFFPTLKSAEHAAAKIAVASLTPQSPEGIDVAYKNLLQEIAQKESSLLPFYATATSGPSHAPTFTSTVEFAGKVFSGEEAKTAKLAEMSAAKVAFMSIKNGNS
The data set is described as follows: EMSA.

A further data set concerns the target T4, DRB4D2D1 (Arabidopsis thaliana, UniProt Q8H1D4 1-3+82-150+73-81+4-72, internal_change).
T4 sequence: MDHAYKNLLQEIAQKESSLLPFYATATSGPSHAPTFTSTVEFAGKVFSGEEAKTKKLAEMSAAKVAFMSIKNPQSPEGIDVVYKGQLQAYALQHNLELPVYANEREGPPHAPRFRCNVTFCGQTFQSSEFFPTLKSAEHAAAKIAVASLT
The data set is described as follows: ITC. (In general: ITC needs no label: the signal is the heat of the interaction.)

In the next data set the target is T5, DRB4 (Arabidopsis thaliana, UniProt Q8H1D4 1-355).
T5 sequence: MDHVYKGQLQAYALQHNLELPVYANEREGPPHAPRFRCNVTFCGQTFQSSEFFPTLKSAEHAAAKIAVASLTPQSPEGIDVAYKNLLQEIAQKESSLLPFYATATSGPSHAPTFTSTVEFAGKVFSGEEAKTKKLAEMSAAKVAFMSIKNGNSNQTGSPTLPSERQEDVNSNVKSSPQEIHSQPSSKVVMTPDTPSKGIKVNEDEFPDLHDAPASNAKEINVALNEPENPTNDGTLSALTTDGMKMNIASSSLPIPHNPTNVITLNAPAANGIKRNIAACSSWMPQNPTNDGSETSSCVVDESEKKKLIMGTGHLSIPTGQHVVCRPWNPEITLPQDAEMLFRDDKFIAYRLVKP
Briefly: ITC.

For the next data set, the target named is T6, DRB4D1D2 (Arabidopsis thaliana, UniProt Q8H1D4 1-153).
T6 sequence: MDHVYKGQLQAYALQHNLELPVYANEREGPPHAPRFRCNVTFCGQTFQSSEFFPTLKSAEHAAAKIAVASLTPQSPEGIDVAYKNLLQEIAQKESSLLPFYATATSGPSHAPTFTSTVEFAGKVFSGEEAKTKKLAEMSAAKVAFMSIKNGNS
The data set is described as follows: ITC.

B1: 80 bp dsRNA (dsRNA)
RNA 1: GGGUGCUGUUUCUCGUGUUCGUGUUCGUUUCUCUUCUCUUGUCCUUGUUCUGUUCUCCUUUGUUCGUUCCUGUUCCCCUU
RNA 2: AAGGGGAACAGGAACGAACAAAGGAGAACAGAACAAGGACAAGAGAAGAGAAACGAACACGAACACGAGAAACAGCACCC
B1: the binding result with DRB4 H32A/K133A, with DRB4C and with DRB4D1D2 H32A/K133A was “no binding” each time. Also, the Kd with DRB4D2D1 is 4000 ± 400 nM; with DRB4, 120 ± 40 nM; in the data set with DRB4D1D2, 400 ± 30 nM.

Usually Kd stands for the free concentration of one partner at which half of the binding sites on the other are occupied at equilibrium, for simple one-to-one binding.
